According to the supplement of paper PMC5998384:

Key:
HeLa Kyoto [1] = assay: solubility in G1/S (NP-40 vs SDS abundance) (log2 ratio); higher = more soluble; conditions: cell cycle stage: G1/S
HeLa Kyoto [2] = assay: solubility change mitosis vs G1/S (difference of NP-40 vs SDS log2 ratios) (log2 ratio difference); higher = more soluble in mitosis
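Throughout, for solubility change mitosis vs G1/S (difference of NP-40 vs SDS log2 ratios): synchronized HeLa Kyoto cells (double thymidine block for G1/S, nocodazole release for mitosis), protein amounts in NP-40 versus SDS lysates quantified by mass spectrometry, three biological replicates.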
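Throughout, for solubility in G1/S (NP-40 vs SDS abundance): HeLa Kyoto cells arrested at G1/S by double thymidine block, proteins quantified by TMT10plex mass spectrometry in mild NP-40 versus SDS extracts, three biological replicates.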

Sequence | solubility in G1/S (log2) (HeLa Kyoto [1]) | solubility change mitosis (log2) (HeLa Kyoto [2])
MFSAGAESLLHQAREIQDEELKKFCSRICKLLQAEDLGPDTLDSLQRLFLIISATKYSRRLEKTCVDLLQATLGLPACPEQLQVLCAAILREMSPSDSLSLAWDHTQNSRQLSLVASVLLAQGDRNEEVRAVGQGVLRALESRQPEGPSLRHLLPVMAKVVVLSPGTLQEDQATLLSKRLVDWLRYASLQQGLPHSGGFFSTPRARQPGPVTEVDGAVATDFFTVLSSGHRFTDDQWLNVQAFSMLRAWLLHSGPEGPGTLDTDDRSEQEGSTLSVISATSSAGRLLPPRERLREVAFEYCQRLIEQSNRRALRKGDSDLQKACLVEAVLVLDVLCRQDPSFLYRSLSCLKALHGRVRGDPASVRVLLPLAHFFLSHGEAAAVDSEAVYQHLFTRIPVEQFHSPMLAFEFIQFCRDNLHLFSGHLSTLRLSFPNLFKFLAWNSPPLTSEFVALLPALVDAGTALEMLHALLDLPCLTAVLDLQLRSAPAASERPLWDTSLRAPSCLEAFRDPQFQGLFQYLLRPKASGATERLAPLHQLLQPMAGCARVAQCAQAVPTLLQAFFSAVTQVADGSLINQLALLLLGRSDSLYPAPGYAAGVHSVLSSQFLALCTLKPSLVVELARDLLEFLGSVNGLCSRASLVTSVVWAIGEYLSVTYDRRCTVEQINKFFEALEALLFEVTQCRPSAALPRCPPQVVTVLMTTLTKLASRSQDLIPRASLLLSKMRTLAHSPATSSTHSEEGAEAIRTRATELLTLLKMPSVAQFVLTPSTEVCSPRYHRDANTALPLALRTVSRLVEREAGLMPG [AP5Z1] | 0.134 | -0.0926
MFSALKKLVGSDQAPGRDKNIPAGLQSMNQALQRRFAKGVQYNMKIVIRGDRNTGKTALWHRLQGRPFVEEYIPTQEIQVTSIHWSYKTTDDIVKVEVWDVVDKGKCKKRGDGLKMENDPQEAESEMALDAEFLDVYKNCNGVVMMFDITKQWTFNYILRELPKVPTHVPVCVLGNYRDMGEHRVILPDDVRDFIDNLDRPPGSSYFRYAESSMKNSFGLKYLHKFFNIPFLQLQRETLLRQLETNQLDMDATLEELSVQQETEDQNYGIFLEMMEARSRGHASPLAANGQSPSPGSQSPVVPAGAVSTGSSSPGTPQPAPQLPLNAAPPSSVPPVPPSEALPPPACPSAPAPRRSIISRLFGTSPATEAAPPPPEPVPAAEGPATVQSVEDFVPDDRLDRSFLEDTTPARDEKKVGAKAAQQDSDSDGEALGGNPMVAGFQDDVDLEDQPRGSPPLPAGPVPSQDITLSSEEEAEVAAPTKGPAPAPQQCSEPETKWSSIPASKPRRGTAPTRTAAPPWPGGVSVRTGPEKRSSTRPPAEMEPGKGEQASSSESDPEGPIAAQMLSFVMDDPDFESEGSDTQRRADDFPVRDDPSDVTDEDEGPAEPPPPPKLPLPAFRLKNDSDLFGLGLEEAGPKESSEEGKEGKTPSKEKKKKKKKGKEEEEKAAKKKSKHKKSKDKEEGKEERRRRQQRPPRSRERTAADELEAFLGGGAPGGRHPGGGDYEEL [RABL6] | 0.183 | -0.0863
MFSLKPPKPTFRSYLLPPPQTDDKINSEPKIKKLEPVLLPGEIVVNEVNFVRKCIATDTSQYDLWGKLICSNFKISFITDDPMPLQKFHYRNLLLGEHDVPLTCIEQIVTVNDHKRKQKVLGPNQKLKFNPTELIIYCKDFRIVRFRFDESGPESAKKVCLAIAHYSQPTDLQLLFAFEYVGKKYHNSANKINGIPSGDGGGGGGGGNGAGGGSSQKTPLFETYSDWDREIKRTGASGWRVCSINEGYMISTCLPEYIVVPSSLADQDLKIFSHSFVGRRMPLWCWSHSNGSALVRMALIKDVLQQRKIDQRICNAITKSHPQRSDVYKSDLDKTLPNIQEVQAAFVKLKQLCVNEPFEETEEKWLSSLENTRWLEYVRAFLKHSAELVYMLESKHLSVVLQEEEGRDLSCCVASLVQVMLDPYFRTITGFQSLIQKEWVMAGYQFLDRCNHLKRSEKESPLFLLFLDATWQLLEQYPAAFEFSETYLAVLYDSTRISLFGTFLFNSPHQRVKQSTEFAISKNIQLGDEKGLKFPSVWDWSLQFTAKDRTLFHNPFYIGKSTPCIQNGSVKSFKRTKKSYSSTLRGMPSALKNGIISDQELLPRRNSLILKPKPDPAQQTDSQNSDTEQYFREWFSKPANLHGVILPRVSGTHIKLWKLCYFRWVPEAQISLGGSITAFHKLSLLADEVDVLSRMLRQQRSGPLEACYGELGQSRMYFNASGPHHTDTSGTPEFLSSSFPFSPVGNLCRRSILGTPLSKFLSGAKIWLSTETLANED [MTMR10] | -0.147 | 0.00531
MFSRNHRSRVTVARGSALEMEFKRGRFRLSLFSDLPEDTELQRKLDHEIRMREGACKLLAACSQREQALEATKSLLVCNSRILSYMGELQRRKEAQVLGKTSRRPSDSGPPAERSPCRGRVCISDLRIPLMWKDTEYFKNKGDLHRWAVFLLLQLGEHIQDTEMILVDRTLTDISFQSNVLFAEAGPDFELRLELYGACVEEEGALTGGPKRLATKLSSSLGRSSGRRVRASLDSAGGSGSSPILLPTPVVGGPRYHLLAHTTLTLAAVQDGFRTHDLTLASHEENPAWLPLYGSVCCRLAAQPLCMTQPTASGTLRVQQAGEMQNWAQVHGVLKGTNLFCYRQPEDADTGEEPLLTIAVNKETRVRAGELDQALGRPFTLSISNQYGDDEVTHTLQTESREALQSWMEALWQLFFDMSQWKQCCDEIMKIETPAPRKPPQALAKQGSLYHEMAIEPLDDIAAVTDILTQREGARLETPPPWLAMFTDQPALPNPCSPASVAPAPDWTHPLPWGRPRTFSLDAVPPDHSPRARSVAPLPPQRSPRTRGLCSKGQPRTWLQSPV [RTKN] | 0.208 | -0.0634
MGAAGSSALARFVLLAQSRPGWLGVAALGLTAVALGAVAWRRAWPTRRRRLLQQVGTVAQLWIYPVKSCKGVPVSEAECTAMGLRSGNLRDRFWLVINQEGNMVTARQEPRLVLISLTCDGDTLTLSAAYTKDLLLPIKTPTTNAVHKCRVHGLEIEGRDCGEATAQWITSFLKSQPYRLVHFEPHMRPRRPHQIADLFRPKDQIAYSDTSPFLILSEASLADLNSRLEKKVKATNFRPNIVISGCDVYAEDSWDELLIGDVELKRVMACSRCILTTVDPDTGVMSRKEPLETLKSYRQCDPSERKLYGKSPLFGQYFVLENPGTIKVGDPVYLLGQ [MARC1] | 0.00278 | -0.0926
MGALARALLLPLLAQWLLRAAPELAPAPFTLPLRVAAATNRVVAPTPGPGTPAERHADGLALALEPALASPAGAANFLAMVDNLQGDSGRGYYLEMLIGTPPQKLQILVDTGSSNFAVAGTPHSYIDTYFDTERSSTYRSKGFDVTVKYTQGSWTGFVGEDLVTIPKGFNTSFLVNIATIFESENFFLPGIKWNGILGLAYATLAKPSSSLETFFDSLVTQANIPNVFSMQMCGAGLPVAGSGTNGGSLVLGGIEPSLYKGDIWYTPIKEEWYYQIEILKLEIGGQSLNLDCREYNADKAIVDSGTTLLRLPQKVFDAVVEAVARASLIPEFSDGFWTGSQLACWTNSETPWSYFPKISIYLRDENSSRSFRITILPQLYIQPMMGAGLNYECYRFGISPSTNALVIGATVMEGFYVIFDRAQKRVGFAASPCAEIAGAAVSEISGPFSTEDVASNCVPAQSLSEPILWIVSYALMSVCGAILLVLIVLLLLPFRCQRRPRDPEVVNDESSLVRHRWK [BACE2] | 0.0932 | 0.0177
MGAQDRPQCHFDIEINREPVGRIMFQLFSDICPKTCKNFLCLCSGEKGLGKTTGKKLCYKGSTFHRVVKNFMIQGGDFSEGNGKGGESIYGGYFKDENFILKHDRAFLLSMANRGKHTNGSQFFITTKPAPHLDGVHVVFGLVISGFEVIEQIENLKTDAASRPYADVRVIDCGVLATKSIKDVFEKKRKKPTHSEGSDSSSNSSSSSESSSESELEHERSRRRKHKRRPKVKRSKKRRKEASSSEEPRNKHAMNPKGHSERSDTNEKRSVDSSAKREKPVVRPEEIPPVPENRFLLRRDMPVVTAEPEPKIPDVAPIVSDQKPSVSKSGRKIKGRGTIRYHTPPRSRSCSESDDDDSSETPPHWKEEMQRLRAYRPPSGEKWSKGDKLSDPCSSRWDERSLSQRSRSWSYNGYYSDLSTARHSGHHKKRRKEKKVKHKKKGKKQKHCRRHKQTKKRRILIPSDIESSKSSTRRMKSSCDRERSSRSSSLSSHHSSKRDWSKSDKDVQSSLTHSSRDSYRSKSHSQSYSRGSSRSRTASKSSSHSRSRSKSRSSSKSGHRKRASKSPRKTASQLSENKPVKTEPLRATMAQNENVVVQPVVAENIPVIPLSDSPPPSRWKPGQKPWKPSYERIQEMKAKTTHLLPIQSTYSLANIKETGSSSSYHKREKNSESDQSTYSKYSDRSSESSPRSRSRSSRSRSYSRSYTRSRSLASSHSRSRSPSSRSHSRNKYSDHSQCSRSSSYTSISSDDGRRAKRRLRSSGKKNSVSHKKHSSSSEKTLHSKYVKGRDRSSCVRKYSESRSSLDYSSDSEQSSVQATQSAQEKEKQGQMERTHNKQEKNRGEEKSKSERECPHSKKRTLKENLSDHLRNGSKPKRKNYAGSKWDSESNSERDVTKNSKNDSHPSSDKEEGEATSDSESEVSEIHIKVKPTTKSSTNTSLPDDNGAWKSSKQRTSTSDSEGSCSNSENNRGKPQKHKHGSKENLKREHTKKVKEKLKGKKDKKHKAPKRKQAFHWQPPLEFGEEEEEEIDDKQVTQESKEKKVSENNETIKDNILKTEKSSEEDLSGKHDTVTVSSDLDQFTKDDSKLSISPTALNTEENVACLQNIQHVEESVPNGVEDVLQTDDNMEICTPDRSSPAKVEETSPLGNARLDTPDINIVLKQDMATEHPQAEVVKQESSMSESKVLGEVGKQDSSSASLASAGESTGKKEVAEKSQINLIDKKWKPLQGVGNLAAPNAATSSAVEVKVLTTVPEMKPQGLRIEIKSKNKVRPGSLFDEVRKTARLNRRPRNQESSSDEQTPSRDDDSQSRSPSRSRSKSETKSRHRTRSVSYSHSRSRSRSSTSSYRSRSYSRSRSRGWYSRGRTRSRSSSYRSYKSHRTSSRSRSRSSSYDPHSRSRSYTYDSYYSRSRSRSRSQRSDSYHRGRSYNRRSRSCRSYGSDSESDRSYSHHRSPSESSRYS [NKTR] | -1.34 | 0.283
MGATGDAEQPRGPSGAERGGLELGDAGAAGQLVLTNPWNIMIKHRQVQRRGRRSQMTTSFTDPAISMDLLRAVLQPSINEEIQTVFNKYMKFFQKAALNVRDNVGEEVDAEQLIQEACRSCLEQAKLLFSDGEKVIPRLTHELPGIKRGRQAEEECAHRGSPLPKKRKGRPPGHILSSDRAAAGMVWKPKSCEPIRREGPKWDPARLNESTTFVLGSRANKALGMGGTRGRIYIKHPHLFKYAADPQDKHWLAEQHHMRATGGKMAYLLIEEDIRDLAASDDYRGCLDLKLEELKSFVLPSWMVEKMRKYMETLRTENEHRAVEAPPQT [DNTTIP1] | 0.512 | -0.0131
